Source: patent US20030207290A1
Values joined by “and” are separate entries in the source; they are usually repeats but may differ in a detail not shown here. Equal entries are not always repeated. Where two headings read alike, the source gives them in different places.

Assays:
[1] = target: c-Myc phosphopeptide (Myc-p58Tp62S), …(p)TPPL(p)SPSRRSGL; test: ECL 7-spot plate screen, peptide-BSA spot, biotinylated TnT protein, Ru-streptavidin; signal normalized in two steps
[2] = target: EGFR-pY1148 phosphopeptide, …(p)…; test: as above
[3] = target: T1, EGFR-pY1068 phosphopeptide, LPVPE(p)…; test: ECL 4-spot multi-array binding assay: peptide-BSA spot, biotinylated TnT protein, Sulfo-TAG streptavidin
T1 sequence (peptide, phosphotyrosine at (p)Y (residue 6 of the printed peptide; EGFR Tyr1068)): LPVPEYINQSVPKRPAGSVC

[4] = target: EGFR-pY1148 phosphopeptide, …(p)…; test: as above
[5] = target: IkBa phosphopeptide (IkBa-24pp), …(p)SGLD(p)SMKDEEYC; test: as above
IkBa phosphopeptide (IkBa-24pp), …(p)SGLD(p)SMKDEEYC, sequence (peptide, as listed by the source): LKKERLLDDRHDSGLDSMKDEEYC

BSA (control coating) = BSA (control coating) (UniProt P02769); test: ECL plate binding assay: BSA control on electrode, biotinylated TnT protein, Sulfo-TAG streptavidin
BSA (control coating), sequence (P02769 25-607 limits assumed): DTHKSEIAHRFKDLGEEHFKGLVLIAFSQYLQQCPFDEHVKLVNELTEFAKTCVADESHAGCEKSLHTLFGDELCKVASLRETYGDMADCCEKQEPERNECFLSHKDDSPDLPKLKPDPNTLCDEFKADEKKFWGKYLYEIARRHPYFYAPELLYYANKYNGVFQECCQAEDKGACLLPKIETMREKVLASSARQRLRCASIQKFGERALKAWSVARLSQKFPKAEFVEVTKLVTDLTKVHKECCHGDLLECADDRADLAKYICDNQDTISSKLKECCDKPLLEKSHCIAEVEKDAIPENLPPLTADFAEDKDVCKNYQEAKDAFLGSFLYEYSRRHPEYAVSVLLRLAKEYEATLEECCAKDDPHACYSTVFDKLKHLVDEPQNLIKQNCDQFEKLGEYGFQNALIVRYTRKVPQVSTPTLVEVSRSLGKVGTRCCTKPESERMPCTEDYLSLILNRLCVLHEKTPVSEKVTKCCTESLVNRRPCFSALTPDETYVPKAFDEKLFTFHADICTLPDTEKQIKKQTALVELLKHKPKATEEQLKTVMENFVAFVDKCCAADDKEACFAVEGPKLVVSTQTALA

[6] = target: c-Myc phosphopeptide (Myc-p58Tp62S), …(p)TPPL(p)SPSRRSGL; test: ECL plate binding assay: peptide-BSA on electrode, biotinylated TnT protein, Sulfo-TAG streptavidin
[7] = target: IkBa phosphopeptide (IkBa-24pp), …(p)SGLD(p)SMKDEEYC; test: as above
[8] = target: IkBa phosphopeptide (IkBa-24pp), …(p)SGLD(p)SMKDEEYC; test: ECL 4-spot multi-array binding assay: peptide-BSA spot
[9] = target: T1, EGFR-pY1068 phosphopeptide, LPVPE(p)…; test: ECL 7-spot plate screen, peptide-BSA spot, biotinylated TnT protein, Ru-streptavidin; signal normalized in two steps
[10] = target: EGFR-pY992 phosphopeptide, DADE(p)…; test: as above
EGFR-pY992 phosphopeptide, DADE(p)…, sequence (peptide, as listed by the source): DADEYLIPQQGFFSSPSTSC

[11] = target: IkBa phosphopeptide (IkBa-24pp), …(p)SGLD(p)SMKDEEYC; test: as above
[12] = target: phosphorylated EGFR (Sigma Chemical Co, self-phosphorylated) (UniProt P00533); test: TnT protein on streptavidin plate, […] phosphorylated EGFR; bound EGFR detected by its kinase activity on pEY, 1 hr reaction
[13] = target: EGFR-pY992 phosphopeptide, DADE(p)…; test: ECL 4-spot multi-array binding assay: peptide-BSA spot, biotinylated TnT protein, Sulfo-TAG streptavidin
[14] = target: phosphorylated EGFR (Sigma Chemical Co, self-phosphorylated) (UniProt P00533); test: TnT protein on streptavidin plate, […] phosphorylated EGFR; bound EGFR detected by its kinase activity on pEY, 12 hr reaction
[15] = target: phosphorylated EGFR (Sigma Chemical Co, self-phosphorylated) (UniProt P00533); test: TnT protein on streptavidin plate, […] phosphorylated EGFR; bound EGFR detected with TAG-labeled anti-EGFR (clone 225)

c-Myc phosphopeptide (Myc-p58Tp62S), …(p)TPPL(p)SPSRRSGL, sequence (peptide, as listed by the source): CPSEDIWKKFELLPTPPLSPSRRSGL
βTRCP2 (EST clone IMAGE 4237375), in vitro translated, biotin-labelled, sequence (Q9UKB1 whole entry): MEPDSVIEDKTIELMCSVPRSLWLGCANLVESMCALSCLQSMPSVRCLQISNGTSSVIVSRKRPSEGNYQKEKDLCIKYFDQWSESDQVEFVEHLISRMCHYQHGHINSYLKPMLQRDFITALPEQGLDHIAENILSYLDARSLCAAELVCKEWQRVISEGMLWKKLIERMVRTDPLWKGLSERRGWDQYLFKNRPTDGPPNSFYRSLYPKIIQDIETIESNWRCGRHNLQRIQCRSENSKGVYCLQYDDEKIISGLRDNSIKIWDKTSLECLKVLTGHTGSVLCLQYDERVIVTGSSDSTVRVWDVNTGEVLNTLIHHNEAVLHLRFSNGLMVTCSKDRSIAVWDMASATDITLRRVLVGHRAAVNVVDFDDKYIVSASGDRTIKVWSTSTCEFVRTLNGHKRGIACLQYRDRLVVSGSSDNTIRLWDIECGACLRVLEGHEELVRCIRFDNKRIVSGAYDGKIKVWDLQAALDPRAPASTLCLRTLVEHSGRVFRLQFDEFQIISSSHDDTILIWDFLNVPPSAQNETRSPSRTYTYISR
βTRCP1 (EST clone IMAGE 3491843), in vitro translated, biotin-labelled, sequence (Q9Y297 whole entry): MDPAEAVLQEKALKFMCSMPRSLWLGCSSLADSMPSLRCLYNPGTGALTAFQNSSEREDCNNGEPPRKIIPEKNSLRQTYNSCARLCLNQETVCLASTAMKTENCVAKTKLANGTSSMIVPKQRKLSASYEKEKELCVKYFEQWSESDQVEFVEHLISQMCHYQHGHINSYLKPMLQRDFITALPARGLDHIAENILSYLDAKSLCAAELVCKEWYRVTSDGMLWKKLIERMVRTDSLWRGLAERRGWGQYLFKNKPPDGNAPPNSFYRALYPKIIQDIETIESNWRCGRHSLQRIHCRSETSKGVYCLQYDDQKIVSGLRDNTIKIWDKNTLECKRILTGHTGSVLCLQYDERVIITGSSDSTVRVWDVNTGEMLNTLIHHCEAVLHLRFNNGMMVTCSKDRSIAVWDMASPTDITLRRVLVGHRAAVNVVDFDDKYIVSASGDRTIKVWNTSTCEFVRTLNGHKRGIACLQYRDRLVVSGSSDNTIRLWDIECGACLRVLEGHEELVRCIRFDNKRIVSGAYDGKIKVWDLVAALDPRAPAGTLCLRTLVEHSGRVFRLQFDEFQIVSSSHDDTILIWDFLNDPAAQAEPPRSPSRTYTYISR

Row | normalized ECL signal [1] | normalized ECL signal [2] | ECL signal [3] [ECL signal] | ECL signal [4] [ECL signal] | ECL signal [5] [ECL signal] | Average ECL signal (BSA (control coating)) [ECL signal] | Average ECL signal [6] [ECL signal] | Average ECL signal [7] [ECL signal] | fold ECL signal over TnT reaction without exogenous DNA [8] [fold] | normalized ECL signal [9] | normalized ECL signal [10] | normalized ECL signal [11] | normalized ECL signal ([11]; positive control preparation) | ECL signal [12] [ECL signal] | ECL signal [13] [ECL signal] | ECL signal [14] [ECL signal] | ECL signal [15] [ECL signal] | Substance
1 | 10 | 1 | 24 | 35 | 5040 | 672 | 896 | 21500 | 100 |  |  |  |  |  |  |  |  | βTRCP2 (EST clone IMAGE 4237375), in vitro translated, biotin-labelled (from UniProt Q9UKB1 1-542)
2 | 8 and 4 | 1 | 24 | 36 | 2470 | 1720 | 2120 | 40900 | 100 |  |  | 12 | 23 |  |  |  |  | βTRCP1 (EST clone IMAGE 3491843), in vitro translated, biotin-labelled (from UniProt Q9Y297 1-605)
3 |  | 4 | 1480 | 110 |  |  |  |  |  | 55 | 10 |  |  | 18000 | 1400 | 39800 | 30400 | Phospholipase C gamma 1 (PLCγ) (EST clone IMAGE 4419252), in vitro translated, biotin-labelled (from UniProt P19174 1-1290) (enzyme)

More lines, now with the values behind:

Row | Substance | normalized ECL signal [1] | normalized ECL signal [2] | ECL signal [3] [ECL signal] | ECL signal [4] [ECL signal] | ECL signal [5] [ECL signal] | Average ECL signal (BSA (control coating)) [ECL signal] | Average ECL signal [6] [ECL signal] | Average ECL signal [7] [ECL signal] | fold ECL signal over TnT reaction without exogenous DNA [8] [fold] | normalized ECL signal [9] | normalized ECL signal [10] | normalized ECL signal [11] | normalized ECL signal ([11]; positive control preparation) | ECL signal [12] [ECL signal] | ECL signal [13] [ECL signal] | ECL signal [14] [ECL signal] | ECL signal [15] [ECL signal]
4 | Shc (EST clone IMAGE 3911953), in vitro translated, biotin-labelled (from UniProt P29353 1-473) |  | 3 |  |  |  |  |  |  |  | 1 | 1 |  |  |  |  |  | 
5 | Shc (EST clone IMAGE 3914467), in vitro translated, biotin-labelled (from UniProt P29353 1-473) |  | 3 |  |  |  |  |  |  |  | 1 | 1 |  |  |  |  |  | 
6 | mCBP (EST clone IMAGE 3872466), in vitro translated, biotin-labelled |  |  | 126 | 278 | 446 | 352 | 351 | 371 |  |  |  |  |  |  | 498 |  | 
7 | Shc (EST clone IMAGE 3909921), in vitro translated, biotin-labelled (from UniProt P29353 1-473) |  | 5 |  |  |  |  |  |  |  | 1 | 1 |  |  |  |  |  | 
8 | Shc (EST clone IMAGE 3909654), in vitro translated, biotin-labelled (from UniProt P29353 1-473) |  | 3 |  |  |  |  |  |  |  | 1 | 1 |  |  |  |  |  | 
